This note sets out measurements from publication PMC10803776 (2024).

For the assay, the target named is Mycobacterium tuberculosis DnaK, wild type, full length (Mycobacterium tuberculosis, UniProt P9WMJ9 1-625). In words: ITC. (In ITC the heat of successive injections is recorded.)

B1: Mycobacterium tuberculosis GrpE, wild type, full length (natural protein)
chain: MTDGNQKPDGNSGEQVTVTDKRRIDPETGEVRHVPPGDMPGGTAAADAAHTEDKVAELTADLQRVQADFANYRKRALRDQQAAADRAKASVVSQLLGVLDDLERARKHGDLESGPLKSVADKLDSALTGLGLVAFGAEGEDFDPVLHEAVQHEGDGGQGSKPVIGTVMRQGYQLGEQVLRHALVGVVDTVVVDAAELESVDDGTAVADTAENDQADQGNSADTSGEQAESEPSGS
For orientation: Kd means the free concentration of one partner at which half of the binding sites on the other are occupied at equilibrium, for simple one-to-one binding. In the case of B1, binding was characterised by a dissociation constant (Kd) of 360 nM.
